The values below come from the RNAGym collection of RNA variant scans (doi:10.1021/acssynbio.7b00057).

B1: Pistol ribozyme (parent)
chain: GGGUCGUUGUUCCAUAAUCGCGUGGAUAUGGCACGCAAGUUUCUACCGGGCACCGUAAAUGUCCGACUGGAGCCGUUCGGGCGGCUAUAAACAGACCUCAGGCCCGAAGCGUGGCGGCACCUGCCGCCGGUGGUAAAAAAGAUCGGAAGAGCACACGUCU

Variants of B1 are the subject of the data set. Put plainly: aptazyme ON/OFF ratio, guanine; higher = stronger switching; co-transcriptional cleavage with and without guanine.
In the case of U7A U8C G9U U10G U11C C12A C13U, the “aptazyme ON/OFF ratio” value stood at 1.26.
As for U7A U8C G9U U10G U11C C12A C13G, the “aptazyme ON/OFF ratio” value was 1.15.
The value for U7A U8C U10A U11C C12U C13A was 1.07; that for U7A U8C U10A U11C C12U C13G was 1.07; that for U7A U8C U10A U11C C12U C13U was 1.05.
The value for U7A U8C G9U U11A C12G C13G was 1.22; that for U7A U8C G9U U11A C12G C13A was 1.14; that for U7A U8C G9U U11A C12G C13U was 1.2.
On to U7A U8C U10A C12A C13G, for which the “aptazyme ON/OFF ratio” value is 1.15.
The figure for U7A U8C U10A C12A C13U is 1.22; for U7A U8C U10A C12A C13A it is 1.22.
The value for U7A U8C U10A U11G C12A C13G was 1.15; that for U7A U8C U10A U11G C12A C13A was 1.17.
U7A U8C U10A U11G C12A C13U: the “aptazyme ON/OFF ratio” value was 1.22.
Consider U7A U8C U10A U11G C12G C13G, for which the “aptazyme ON/OFF ratio” value amounted to 1.28.
The figure for U7A U8C U10A U11G C12G C13A is 1.36; for U7A U8C U10A U11G C12G C13U it is 1.45; for U7A U8C G9U U10C U11A C12U it is 1.13.
The value for U7A U8C G9U U10C U11A C12G was 1.13; that for U7A U8C G9U U10C U11A C12A was 1.14; that for U7A U8C U10A U11A C12G C13U was 1.28.
The value for U7A U8C U10A U11A C12G C13A was 1.11; that for U7A U8C U10A U11A C12G C13G was 1.31; that for U7A U8C G9U U10C U11C C13A was 1.01.
For U7A U8C G9U U10C U11C C13U, the “aptazyme ON/OFF ratio” value is 1.03.
The value for U7A U8C G9U U10C U11C C13G was 1.02; that for U7A U8C G9U U10G U11A C13A was 1.04; that for U7A U8C G9U U10G U11A C13U was 1.06.
The value for U7A U8C G9U U10G U11A C13G was 1.08; that for U7A U8C U10A C12U was 1.1; that for U7A U8C U10A C12G was 1.18.
For U7A U8C U10A C12A, the “aptazyme ON/OFF ratio” value amounted to 1.24.
In the case of U7A U8C G9U U10G U11G C12G C13G, the “aptazyme ON/OFF ratio” value turned out to be 1.22.
The figure for U7A U8C G9U U10G U11G C12G C13A is 1.15; for U7A U8C G9U U10G U11G C12G C13U it is 1.29; for U7A U8C U10A C12G C13G it is 1.23.
The value for U7A U8C U10A C12G C13U was 1.26.
Regarding U7A U8C U10A C12G C13A, the “aptazyme ON/OFF ratio” value came to 1.09.
The value for U7A U8C G9U U10A U11G C12U C13U was 1.21; that for U7A U8C G9U U10A U11G C12U C13A was 1.17; that for U7A U8C G9U U10A U11G C12U C13G was 1.21.
The value for U7A U8C G9U U10C U11A C12A C13G was 1.1.
The figure for U7A U8C G9U U10C U11A C12A C13A is 1.12; for U7A U8C G9U U10C U11A C12A C13U it is 1.12; for U7A U8C G9U U10C U11G C12A C13A it is 1.13.
Regarding U7A U8C G9U U10C U11G C12A C13G, the “aptazyme ON/OFF ratio” value was 1.11.
The figure for U7A U8C G9U U10C U11G C12A C13U is 1.27; for U7A U8C G9U U11A C12U C13G it is 1.22.
The value for U7A U8C G9U U11A C12U C13A was 1.37; that for U7A U8C G9U U11A C12U C13U was 1.16.
The figure for U7A U8C G9U U11C C12A C13A is 1.18; for U7A U8C G9U U11C C12A C13G it is 1.1; for U7A U8C G9U U11C C12A C13U it is 1.2.
For U7A U8C U10C C12G C13U, the “aptazyme ON/OFF ratio” value stood at 1.41.
The value for U7A U8C U10C C12G C13G was 1.22; that for U7A U8C U10C C12G C13A was 1.34; that for U7A U8C U10C U11G C13A was 1.2.
The figure for U7A U8C U10C U11G C13G is 1.24.
The figure for U7A U8C U10C U11G C13U is 1.23.
In the case of U7A U8C G9U U10C C12U, the “aptazyme ON/OFF ratio” value turned out to be 1.08.
As for U7A U8C G9U U10C C12A, the “aptazyme ON/OFF ratio” value worked out at 1.27.
The value for U7A U8C G9U U10C C12G was 1.57; that for U7A U8C G9U U10G U11A C12G C13A was 1.22.
In the case of U7A U8C G9U U10G U11A C12G C13G, the “aptazyme ON/OFF ratio” value was found to be 0.993.
The value for U7A U8C G9U U10G U11A C12G C13U was 1.21; that for U7A U8C U10C U11A C12A C13U was 1.21.
The figure for U7A U8C U10C U11A C12A C13G is 1.15; for U7A U8C U10C U11A C12A C13A it is 1.18; for U7A U8C U10G C12G C13U it is 1.19.
U7A U8C U10G C12G C13A: the “aptazyme ON/OFF ratio” value is 1.09.
The value for U7A U8C U10G C12G C13G was 1.11; that for U7A U8C U10A U11A C12A C13G was 1.15.
Consider U7A U8C U10A U11A C12A C13A, for which the “aptazyme ON/OFF ratio” value was found to be 1.07.
The figure for U7A U8C U10A U11A C12A C13U is 1.17; for U7A U8C G9U U11C C12U C13U it is 1.17.
The value for U7A U8C G9U U11C C12U C13G was 1.04; that for U7A U8C G9U U11C C12U C13A was 1.12.
Turning to U7A U8C G9U U11C C12G, the “aptazyme ON/OFF ratio” value turned out to be 1.27.
As to U7A U8C G9U U11C C12U, the “aptazyme ON/OFF ratio” value is 1.15.
The figure for U7A U8C G9U U11C C12A is 1.28; for U7A U8C U10G U11A C12A C13A it is 1.28; for U7A U8C G9U U10G U11A C12A C13G it is 1.13.
The value for U7A U8C G9U U10G U11A C12A C13A was 1.04.
The figure for U7A U8C G9U U10G U11A C12A C13U is 1.41.
